Biological target: the molecule itself
Test: cross-linking; purified proteins in PBS oxidised with 5, 10 and 20 μM CuCl2 for 10 min (disulfide bonds), non-reducing 10% SDS-PAGE, immunoblot; β-amylase alone or mixed with serpin Z4 at 1:2 and 1:5

B1: serpin Z4 (natural protein, barley (Hordeum vulgare) cv. Harrington, UniProt P06293 1-399, looked up)
chain: MATTLATDVRLSIAHQTRFALRLRSAISSNPERAAGNVAFSPLSLHVALSLITAGAAATRDQLVAILGDGGAGDAKELNALAEQVVQFVLANESSTGGPRIAFANGIFVDASLSLKPSFEELAVCQYKAKTQSVDFQHKTLEAVGQVNSWVEQVTTGLIKQILPPGSVDNTTKLILGNALYFKGAWDQKFDESNTKCDSFHLLDGSSIQTQFMSSTKKQYISSSDNLKVLKLPYAKGHDKRQFSMYILLPGAQDGLWSLAKRLSTEPEFIENHIPKQTVEVGRFQLPKFKISYQFEASSLLRALGLQLPFSEEADLSEMVDSSQGLEISHVFHKSFVEVNEEGTEAGAATVAMGVAMSMPLKVDLVDFVANHPFLFLIREDIAGVVVFVGHVTNPLISA
notes: serpin Z4 of barley (Hordeum vulgare) cv; Harrington, cloned from cDNA into pET28-(a); In one direction of the MST experiment the protein carried an NHS-ester fluorescent dye; in one direction of the SPR experiment it was amine-coupled to a CM5 chip; source: E. coli SHuffle cells, purified (Ni-NTA, gel filtration on Superdex 200 Increase)
  binding result: binds

Reference: paper PMC6508567, “Noncanonical interactions between serpin and β‐amylase in barley grain improve β‐amylase activity in vitro” (Plant Direct, 2018)
